Km and kcat data for one protein are collected here from PMC11577753, “Identification and characterization of a novel formaldehyde dehydrogenase in Bacillus subtilis” (Applied and Environmental Microbiology, 2024).

Substrate in this data set: C=O
The data set is described as follows: purified protein. The class given is biochemical, Bacillus subtilis. To be noted: 10 mM NAD+, 50 mM BISTRIS propane pH 9.0, 25 mM NaCl, 37 °C (Fig 6 legend; methods say 40 °C).

B1: YycR (Bacillus subtilis subsp. subtilis str. 168) (protein)
chain: MGGMALTGNKAVVYKGKGTVAVEDIGYPELILRDGPGVPKANVNRKCEHGVILKVITTNICGSDQHMVRGRTTAPEGLVLGHEITGEVIETGRDVEFIKKGDIVSVPFNIACGRCVMCKTQKTHVCLNVNPDRPGSAYGYVDMGGWVGGQSEYVMVPYADFQLLVFPDKEQALEKILDLTMLSDIFPTGFHGAYTAGVQTGSTVYIAGAGPVGLAAAHSAQLLGASTVIVGDLNEDRLAQARSFGCETVNVQKHDRLGEQIEQILGEPTVDAAVDCVGFEASGHGNQGEAPAAVLNSIMDVTQVGGSLGIPGLYVTEDPGAKDADAKTGSLKIRFGLGWAKAHTFVTGQTPAMTYNRNLMKAILSGRAQIAKAVNATVISLDDAPKGYSDFDKGAAKKFVIDPHGTLK
notes: full-length, C-terminal His tag (pNIC-CH) kept, E. coli T7 Express, HisTrap purified, 44 kDa; zinc-type, metal as purified
Regarding B1, the Km (usually the substrate concentration at which the rate is half of its maximum) was 190 ± 50 µM; the kcat – broadly, the number of substrate molecules converted per active site and unit of time at saturation – came to 0.52 s⁻¹.
